Several values for one entry are separate records, joined by “and”; a condition that tells them apart may be missing. Equal values may be shown once.
Assays:
NK/T cells = assay: Adenosine-mediated inhibition of NK/T cell proliferation (Cell Titer Glow); format: cell-based, human; conditions: 5 days
Experimental: A mixture of NK and T cells (NK/T) were prepared from healthy donor's peripheral blood mononuclear cells (PBMC). Briefly, 10×10^7 HumanPBMCs were cultured for 6-7 days in Stem cell growth medium (SCGM; Order No. 20802-0500, CellGenix, Freiburg, Germany) with 5% human serum from donors with blood type AB (human AB serum; Cat. No. 35-060-C1, Mediatech, Mannassas, Va.) in the presence of 20 ng/mL anti-CD3 eBioscience, San Diego, Calif.; Cat. No. 16-0039) and 500 IU/mL recombinant human interleukin 2 (rhIL-2; Cat. No. 200-02, PeproTech, Rocky Hill, N.J.). The cells were then cultured for an additional 2-3 weeks in SCGM in the presence of 500 IU/mL rhIL-2. NK/T cells cultured for 2-4 weeks were used in experiments.
To test the adenosine-mediated inhibition of NK/T cells proliferation, NK/T cells (10,000 cells/well) were plated in a 96 well white plate with clear bottoms in 200 μL volume. The cells were treated with 20 μL adenosine (SKU No. A925, Sigma Aldrich) at concentrations resulting from a 3-fold dilution series starting at 1 mM, i.e. 1 mM, 300 μM, 100 μM, 30 μM, 10 μM, 3 μM, 1 μM, 0.3 μM and 0.1 μM. The NK/T cells were allowed to grow for 5 days in a humidified tissue culture incubator at 37° C. with 5% CO2. After 5 days of treatment, the cells were centrifuged in a 96 well plate at […] for 5 min. 100 μL of medium was removed from each well of cells, followed by addition of 100 μL of Cell Titer Glow (CTG) reagent (Cat. No. G7570, Promega, Madison, Wis.) and incubated at room temperature for 15 min before measuring luminescence on the SpectraMax M3 plate reader according to the manufacturer's instructions. The mean cell survival (%) was determined by comparison of the measured luminescence to control cells not treated with adenosine

[1] = Distribution of labeled PEG-ADA2-K374D in CT26 peritibial tumors (IVIS fluorescent imaging); format: in vivo, Balb/C mice; conditions: for Fluorescent intensity at tumor: 0.5 mg/kg IV
Experimental: To assess the distribution and elimination of administered PEG-ADA2-K374D in the tumor microenvironment or in normal organs, immunofluorescence was used to assess the presence of PEG-ADA2-K374D administered to mice. PEG-ADA2-K374D was labeled at room temperature for 60 minutes with DyLight755 Sulfydryl-Reactive Dye (DL755), a near-IR fluor, using the DyLight 755 Antibody Labeling Kit (Thermo Scientific, Rockford, Ill.). Alexa Fluor 750 (AF 750) labeled bovine serum albumin (BSA, 1 mg/mL) was purchased from (Life Technology, Carlsbad, Calif.).
CT26 syngeneic tumors were produced by injecting 2×10^5 cells in 0.05 mL injection volume per animal into the right peritibial muscle of male Balb/C mice. When average tumor size reached 600 mm^3, tumor-bearing mice were staged into 2 groups (n=4/group) to receive either PEG-ADA2-K374D^DL755 at 0.5 mg/kg or BSA^AF750 at 0.5 mg/kg intravenously. The distribution of DL755 labeled PEG-ADA2-K374D (PEG-ADA2-K374D^DL755) and AF 750 labeled BSA (BSA^AF750) in mouse tumors was assessed using the IVIS Caliper fluorescent imaging system with an excitation wavelength of 745 nm and an emission wavelength of 800 nm (Caliper Life Sciences, Alameda, Calif.) and signal intensity was measured with LivingImage software. Images were captured before administration of labeled proteins and at 10 minute, 2, 6 hours and daily after administration of labeled proteins.

[2] = Kinetic assessment of adenosine deaminase activity (ammonia assay, Michaelis-Menten); format: biochemical; conditions: for Km / Vmax / kcat: [E] = 8.5 nM; for kcat: kcat=Vmax/0.0085/60
How it was run: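 Coupled ammonia assay: rHuADA2 WT or variants (1 μg/mL, 17 nM in 2× mix) with adenosine 20 μM–20 mM, α-ketoglutarate, NADPH and GDH, at pH 7.6 or pH 6.5 (PIPES), room temperature. Michaelis-Menten fit gave Km, Vmax, kcat, kcat/Km.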

[3] = test system: adenosine in tumor extracellular matrix; assay: Adenosine in MH194+PSC4 tumor extracellular matrix (microdialysis, LC/MS); format: in vivo, mice; conditions: for Adenosine concentration in ECM, Mean: n = 8; for Adenosine concentration in ECM, individual tumors: single animal values; for adenosine concentration in tumor ECM: 0.03 mg/kg
Experimental: To assess the effects of PEGADA2 on adenosine in tumor extracellular matrix, mice bearing peritibial MH194+PSC4 tumors received vehicle, the polypeptide whose sequence is set forth in SEQ ID NO:20, which contains the amino acid replacement K374D (Zavialov numbering; K371D mature numbering), at 0.03 mg/kg, or the polypeptide whose sequence is set forth in SEQ ID NO: 273, which contains the amino acid replacements R222Q/S265N (Zavialov numbering; R219Q/S262 mature numbering), at 0.03 mg/kg, 24 or 48 hours prior to microdialysis. Each of the polypeptides were PEGylated as described above in Examples 8 and 22). The mice were anesthetized using isofluorane, and a heating pad was used to maintain body temperature. A small incision was made on the tumor. A microdialysis probe with 55,000 Da molecular weight cut-off (CMA, Stockholm, Sweden) was inserted into the tumor, via a guided cannula. The length of the microdialysis probe used in this study was 10 mm. Once the probe was in position, the cannula was withdrawn leaving the probe completely embedded in the tumor tissue. Dulbecco's phosphate buffered saline (DPBS; Thermo Fisher Scientific) with ADA inhibitors (Pentostatin and 5-iodotubercindin) was perfused through the probe at a flow rate of 1 μl/min for 30 minutes. Then the samples were collected at a flow rate of 0.5 μl/min for 60 minutes. Microdialysis perfusates were analyzed by Liquid chromatography-mass spectrometry (LC/MS) at MicroConstants (9050 Camino Santa Fe, San Diego, Calif. 92121).

Nc1ncnc2c1ncn2[C@@H]1O[C@H](CO)[C@@H](O)[C@H]1O [Adenosine, adenosine]
IC50 (NK/T cells; Homo sapiens, NKT, 120 h): 16.2 µM
Mean Cell survival (%) (NK/T cells; adenosine 0.1 μM): 106.67%
Mean Cell survival (%) (NK/T cells; adenosine 0.3 μM): 101.19%
Mean Cell survival (%) (NK/T cells; adenosine 1 μM): 121.11%
Mean Cell survival (%) (NK/T cells; adenosine 3 μM): 110.07%
Mean Cell survival (%) (NK/T cells; adenosine 10 μM): 70.33%
Mean Cell survival (%) (NK/T cells; adenosine 30 μM): 36.84%
Mean Cell survival (%) (NK/T cells; adenosine 100 μM): 26.01%
Mean Cell survival (%) (NK/T cells; adenosine 300 μM): 13.65%
Mean Cell survival (%) (NK/T cells; adenosine 1000 μM): 15.82%

BSA^AF750: Alexa Fluor 750 (AF 750) labeled bovine serum albumin, control agent
Fluorescent intensity at tumor ([1]; Hour 0.2): 2.95E+09
Fluorescent intensity at tumor ([1]; Hour 2): 3.92E+09
Fluorescent intensity at tumor ([1]; Hour 6): 4.64E+09
Fluorescent intensity at tumor ([1]; Hour 24): 3.18E+09
Fluorescent intensity at tumor ([1]; Hour 48): 1.94E+09
Fluorescent intensity at tumor ([1]; Hour 72): 1.30E+09
Fluorescent intensity at tumor ([1]; Hour 96): 9.86E+08
Fluorescent intensity at tumor ([1]; Hour 144): 7.78E+08
Fluorescent intensity at tumor ([1]; Hour 168): 6.39E+08
Fluorescent intensity at tumor ([1]; Hour 196): 6.59E+08
Fluorescent intensity at tumor ([1]; Hour −1 (before administration)): 7.86E+08
eliminated from tumors ([1]; day 6 post injection, 0.5 mg/kg intravenously): ~100%

B1: R222Q/S265N: ADA2 combination variant SEQ ID NO:273 (protein)
chain: IDETRAHLLLKEKMMRLGGRLVLNTKEELANERLMTLKIAEMKEAMRTLIFPPSMHFFQAKHLIERSQVFNILRMMPKGAALHLHDIGIVTMDWLVRNVTYRPHCHICFTPRGIMQFRFAHPTPRPSEKCSKWILLEDYRKRVQNVTEFDDSLLRNFTLVTQHPEVIYTNQNVVWSKFETIFFTISGLIHYAPVFRDYVFRSMQEFYEDNVLYMEIRAQLLPVYELSGEHHDEEWSVKTYQEVAQKFVETHPEFIGIKIIYNDHRSKDVAVIAESIRMAMGLRIKFPTVVAGFDLVGHEDTGHSLHDYKEALMIPAKDGVKLPYFFHAGETDWQGTSIDRNILDALMLNTTRIGHGFALSKHPAVRTYSWKKDIPIEVCPISNQVLKLVSDLRNHPVATLMATGHPMVISSDDPAMFGAKGLSYDFYEVFMGIGGMKADLRTLKQLAMNSIKYSTLLESEKNTFMEIWKKRWDKFIADVATK
modifications: human ADA2 R219Q/S262N, mature numbering
fold higher catalytic efficiency (kcat/Km) compared to the WT ADA2 ([2]; pH 6.5): 8.2 fold
fold lower Km compared to the WT ADA2 ([2]; pH 6.5): 5.0 fold
Km ([2]; pH 6.5): 800 µM
Vmax ([2]; pH 6.5): 56.75 µM/min
kcat ([2]; pH 6.5): 111.27 s⁻¹
fold higher catalytic efficiency (kcat/Km) compared to the WT ADA2 ([2]; pH 7.6): 15 fold
fold lower Km compared to the WT ADA2 ([2]; pH 7.6): 4.7 fold
Km ([2]; pH 7.6): 1100 µM
Vmax ([2]; pH 7.6): 87.79 µM/min
kcat ([2]; pH 7.6): 172.14 s⁻¹
Adenosine concentration in ECM, Mean ([3]; 24 hours after 0.03 mg/kg): 6.88 µM
Adenosine concentration in ECM, individual tumors ([3]; 24 hours after 0.03 mg/kg): 0.08 µM and 20.54 µM and 1.08 µM and 0.62 µM and 4.94 µM and 21.48 µM and 0.48 µM and 5.80 µM
adenosine concentration in tumor ECM ([3]; 24 hours post treatment): 6.9 µM
Adenosine concentration in ECM, Mean ([3]; 48 hours after 0.03 mg/kg): 9.77 µM
Adenosine concentration in ECM, individual tumors ([3]; 48 hours after 0.03 mg/kg): 13.06 µM and 1.96 µM and 20.36 µM and 20.62 µM and 0.35 µM and 4.15 µM and 14.26 µM and 3.43 µM
adenosine concentration in tumor ECM ([3]; 48 hours post treatment): 9.8 µM
